In paper PMC548802 one finds ELISA specific binding (OD 450, binding to BSA subtracted) data, which are given here for three substances.

The target in assay [1] is tetranectin with substitution of threonine 149 with tyrosine (TN^T149Y) (human) (UniProt P05452). The experiment in a line: ELISA. In general terms: ELISA stands for enzyme-linked immunosorbent assay.
Assay [2] addresses tetranectin in which lysine 148 was replaced with alanine (TN^K148A) (human) (UniProt P05452). Put plainly: ELISA.

Substance “recombinant human angiostatin containing kringle domains 1-3 (AST^K1-3) (domain or fragment)” came in with an ELISA specific binding (OD 450, binding to BSA subtracted) in assay [1] of 0.43 OD 450.

Turning to “recombinant human angiostatin containing kringle domains 1-4 (AST^K1-4) (domain or fragment)”, the ELISA specific binding (OD 450, binding to BSA subtracted) in assay [1] was determined as 1.83 OD 450; in assay [2] it was 0.06 OD 450.

With human plasminogen (natural protein), in assay [1], the ELISA specific binding (OD 450, binding to BSA subtracted) is 1.73 OD 450.
